Like-named read-outs stand apart in the source and are kept apart here.

Common to all, as to assay: ELISA, 0.5 ug/mL human TIGIT-ECD-mFc coated on the plate, detection with anti-IgG4-HRP, OD 450 nm; unit taken from the axis Log:ng/mL
Assay [1] concerns the target T1, recombinant protein hTIGIT-ECD-mFC (human; mouse, UniProt Q495A1 24-155).
T1 construct: range 24-155; Expressed in 293E cells; also called human TIGIT-ECD-mFc; not shown: murine IgG2a Fc domain of the vector MX2-mFc
T1 sequence (looked up): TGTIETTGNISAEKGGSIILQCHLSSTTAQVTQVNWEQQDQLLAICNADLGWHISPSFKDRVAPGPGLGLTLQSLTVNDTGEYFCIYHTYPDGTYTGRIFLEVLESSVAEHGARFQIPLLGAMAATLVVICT

The target in assay [2] is T1, recombinant protein hTIGIT-ECD-mFC. The source holds these as a separate data set.
Assay [3] has the same target. The source holds these as a separate data set.
Assay [4] shares this target. The source holds these as a separate data set.

B1: etigilimab (antibody, V domains shown)
VH: QVQLQESGPGLVKPSETLSLTCAVSGYSITSDYAWNWIRQPPGKGLEWIGYISYSGSTSYNPSLRSRVTISRDTSKNQFFLKLSSVTAADTAVYYCARRQVGLGFAYWGQGTLVTVSS
VL: DIQMTQSPSSLSASVGDRVTITCKASQDVSTAVAWYQQKPGKAPKLLIYSASYRYTGVPSRFSGSGSGTDFTFTISSLQPEDIATYYCQQHYSTPWTFGQGTKVEIK
Take B1: the 50% effective concentration (EC50) came out at 0.0262 µg/mL in assay [1], 0.0194 µg/mL in assay [2], 0.0275 µg/mL in assay [3] and 0.0362 µg/mL in assay [4].

For orientation: EC50 means the midpoint of the concentration-response curve.

The values above are taken from patent US20220363754A1 (SHANGHAI JUNSHI BIOSCIENCES, published 2022).
